Test in all cases: cross-linking
The target in test [1] is CheA A37C (single-cysteine mutant of cysteine-less CheA) (Salmonella typhimurium) (UniProt P09384).
The target of test [2] is CheA A114C (single-cysteine mutant of cysteine-less CheA) (Salmonella typhimurium) (UniProt P09384).
Test [3] addresses CheA E109C (single-cysteine mutant of cysteine-less CheA) (Salmonella typhimurium) (UniProt P09384).
Test [4] concerns the target CheA E311C (single-cysteine mutant of cysteine-less CheA) (Salmonella typhimurium) (UniProt P09384).
Test [5] addresses CheA G636C (single-cysteine mutant of cysteine-less CheA) (Salmonella typhimurium) (UniProt P09384).
Test [6] concerns the target CheA L627C (single-cysteine mutant of cysteine-less CheA) (Salmonella typhimurium) (UniProt P09384).
Test [7] addresses CheA M469C (single-cysteine mutant of cysteine-less CheA) (Salmonella typhimurium) (UniProt P09384).
The target of test [8] is CheA Q10C (single-cysteine mutant of cysteine-less CheA) (Salmonella typhimurium) (UniProt P09384).
Test [9] concerns the target CheA Q10C/D359C (dicysteine mutant of cysteine-less CheA) (Salmonella typhimurium) (UniProt P09384).
Test [10] has as its target CheA Q10C/E311C (dicysteine mutant of cysteine-less CheA) (Salmonella typhimurium) (UniProt P09384).
Test [11] concerns the target CheA Q10C/E369C (dicysteine mutant of cysteine-less CheA) (Salmonella typhimurium) (UniProt P09384).
The target in test [12] is CheA Q10C/E425C (dicysteine mutant of cysteine-less CheA) (Salmonella typhimurium) (UniProt P09384).
The target of test [13] is CheA Q10C/E460C (dicysteine mutant of cysteine-less CheA) (Salmonella typhimurium) (UniProt P09384).
Test [14] concerns the target CheA Q10C/M469C (dicysteine mutant of cysteine-less CheA) (Salmonella typhimurium) (UniProt P09384).
Test [15] concerns the target CheA Q10C/Q454C (dicysteine mutant of cysteine-less CheA) (Salmonella typhimurium) (UniProt P09384).
Test [16] concerns the target CheA Q10C/S351C (dicysteine mutant of cysteine-less CheA) (Salmonella typhimurium) (UniProt P09384).
For test [17], the target named is CheA Q10C/S514C (dicysteine mutant of cysteine-less CheA) (Salmonella typhimurium) (UniProt P09384).
Test [18] deals with CheA Q125C (single-cysteine mutant of cysteine-less CheA) (Salmonella typhimurium) (UniProt P09384).
The target in test [19] is CheA Q596C (single-cysteine mutant of cysteine-less CheA) (Salmonella typhimurium) (UniProt P09384).
For test [20], the target named is CheA R171C (single-cysteine mutant of cysteine-less CheA) (Salmonella typhimurium) (UniProt P09384).
For test [21], the target named is CheA R607C (single-cysteine mutant of cysteine-less CheA) (Salmonella typhimurium) (UniProt P09384).
Test [22] concerns the target CheA S514C (single-cysteine mutant of cysteine-less CheA) (Salmonella typhimurium) (UniProt P09384).

In test [1], “CheA A37C (single-cysteine mutant of cysteine-less CheA) (from UniProt P09384 1-671) (enzyme)” displayed a fraction (%) intradimer of 46%.

“CheA A114C (single-cysteine mutant of cysteine-less CheA) (from UniProt P09384 1-671) (enzyme)” displayed a fraction (%) intradimer in test [2] of 84%.

In the case of “CheA E109C (single-cysteine mutant of cysteine-less CheA) (from UniProt P09384 1-671) (enzyme)”, the fraction (%) intradimer in test [3] was 82%.

The substance “CheA E311C (single-cysteine mutant of cysteine-less CheA) (from UniProt P09384 1-671) (enzyme)” displayed a fraction (%) intradimer in test [4] of 93%.

For “CheA G636C (single-cysteine mutant of cysteine-less CheA) (from UniProt P09384 1-671) (enzyme)”, in test [5], the fraction (%) intradimer came out at 83%.

“CheA L627C (single-cysteine mutant of cysteine-less CheA) (from UniProt P09384 1-671) (enzyme)”: the fraction (%) intradimer in test [6] turned out to be 100%.

In test [7], “CheA M469C (single-cysteine mutant of cysteine-less CheA) (from UniProt P09384 1-671) (enzyme)” came in with a fraction (%) intradimer of 72%.

As to “CheA Q10C (single-cysteine mutant of cysteine-less CheA) (from UniProt P09384 1-671) (enzyme)”, in test [8], the fraction (%) intradimer worked out at 100%.

Take “CheA Q10C/D359C (dicysteine mutant of cysteine-less CheA) (from UniProt P09384 1-671) (enzyme)”: the fraction (%) intradimer in test [9] is 86%.

“CheA Q10C/E311C (dicysteine mutant of cysteine-less CheA) (from UniProt P09384 1-671) (enzyme)” came in with a fraction (%) intradimer in [10] of 87%.

Take “CheA Q10C/E369C (dicysteine mutant of cysteine-less CheA) (from UniProt P09384 1-671) (enzyme)”: the fraction (%) intradimer in [11] stood at 81%.

With “CheA Q10C/E425C (dicysteine mutant of cysteine-less CheA) (from UniProt P09384 1-671) (enzyme)”, the fraction (%) intradimer in test [12] was 100%.

Regarding “CheA Q10C/E460C (dicysteine mutant of cysteine-less CheA) (from UniProt P09384 1-671) (enzyme)”, the fraction (%) intradimer in test [13] was found to be 91%.

In [14], “CheA Q10C/M469C (dicysteine mutant of cysteine-less CheA) (from UniProt P09384 1-671) (enzyme)” yielded a fraction (%) intradimer of 100%.

In test [15], “CheA Q10C/Q454C (dicysteine mutant of cysteine-less CheA) (from UniProt P09384 1-671) (enzyme)” returned a fraction (%) intradimer of 100%.

Substance “CheA Q10C/S351C (dicysteine mutant of cysteine-less CheA) (from UniProt P09384 1-671) (enzyme)” displayed a fraction (%) intradimer in test [16] of 100%.

Take “CheA Q10C/S514C (dicysteine mutant of cysteine-less CheA) (from UniProt P09384 1-671) (enzyme)”: the fraction (%) intradimer in [17] was determined as 49%.

With “CheA Q125C (single-cysteine mutant of cysteine-less CheA) (from UniProt P09384 1-671) (enzyme)”, in test [18], the fraction (%) intradimer is 81%.

In [19], “CheA Q596C (single-cysteine mutant of cysteine-less CheA) (from UniProt P09384 1-671) (enzyme)” registered a fraction (%) intradimer of 100%.

For “CheA R171C (single-cysteine mutant of cysteine-less CheA) (from UniProt P09384 1-671) (enzyme)”, the fraction (%) intradimer in test [20] stood at 100%.

With “CheA R607C (single-cysteine mutant of cysteine-less CheA) (from UniProt P09384 1-671) (enzyme)”, in test [21], the fraction (%) intradimer is 100%.

In turn, “CheA S514C (single-cysteine mutant of cysteine-less CheA) (from UniProt P09384 1-671) (enzyme)” had a fraction (%) intradimer in [22] of 50%.

Values taken from paper PMC2902799.
